Values joined by “and” are separate entries in the source; they are usually repeats but may differ in a detail not shown here. Equal values may be shown once. Read-outs that look alike come from different tables or passages of the source.
Assays:
[1] = molecular target: T1, linear diubiquitin (Boston Biochem) (human, UniProt P0CG48 1-152); assay: phage IC50 competition ELISA: soluble linear diUb against plate-coated linear diUb for the 1D8.3C2 Fab-phage
T1 construct: Bought product

[2] = molecular target: T1, linear diubiquitin (Boston Biochem); assay: phage IC50 competition ELISA: Fab-phage with titrated soluble linear diubiquitin, unbound phage caught on coated linear diubiquitin; clone 1D8
Description: (§1) An initial titer ELISA was done to determine the amount of phage at which a signal of OD₄₅₀=0.5 would be achieved. […] The coated plates were blocked with 200 μL/well of 2.5% milk in PBST for one hour at 25° C. with shaking. Twelve two-fold serial dilutions of the phage were made in 2.5% milk in PBST from OD₂₆₈=4.0 to OD₂₆₈=0.002. After one hour, the blocking buffer was dumped off of the plate and 100 μL/well of each phage dilution was added and incubated at 25° C. for 15 minutes with shaking. The plate was then washed six times with PBST using a plate washer. A 1:5000 dilution of an anti-M13 phage-HRP-conjugated secondary antibody (GE Healthcare) in PBST was used for detection of phage binding. 100 μL/well of the secondary dilution was added and the plate was incubated at 25° C. for 30 minutes with shaking. The plate was then washed 12 times with PBST using a plate washer and twice with PBS manually. Bound secondary antibody was detected using a TMB substrate (KPL) followed by quenching with an equal volume of 1 M phosphoric acid.

[3] = molecular target: T1, linear diubiquitin (Boston Biochem); assay: phage IC50 competition ELISA with soluble linear diubiquitin
Description: as §1

[4] = molecular target: T1, linear diubiquitin (Boston Biochem); assay: phage IC50 competition ELISA: Fab-phage with titrated soluble linear diubiquitin, unbound phage caught on coated linear diubiquitin; clone 1E3
Description: as §1

[5] = molecular target: T2, K48-linked polyubiquitin 2-7 (Boston Biochem) (human, UniProt P0CG48 1-76, isopeptide bonds between the C-terminus of one ubiquitin and Lys48 of the next); assay: phage spot ELISA, 2 ug/mL coated antigen, anti-M13-HRP
T2 construct: also called K48-linked chains
Description: (§2) Ninety-six individual clones from the second round of sorting of the VH library, 192 clones from the third round of sorting of the VH library, 96 clones from the fourth round of sorting of the VH library, and 192 clones from the fourth round of sorting of the common light chain library were screened. […] Individual clones were grown up in a 96-well format in 1 mL of 2YT broth containing 50 μg/mL carbenicillin and 1×10¹⁰ phage/mL M13K07 helper phage at 37° C. overnight with shaking. Cells were pelleted by spinning at 3000 rpm for ten minutes. […] All of the Fab libraries contain a carboxy-terminal gD tag on the light chain which allows for assessment of display level by anti-gD antibody binding. The panel of ubiquitin proteins was immobilized on 384-well Maxisorb immunoplates (NUNC). Plates were coated at 4° C. overnight with 2 μg/mL of each protein in 50 mM sodium carbonate buffer, pH 9.6. The coated plates were blocked with 60 μL/well of 2.5% milk in PBST for one hour at 25° C. with shaking. After one hour, the blocking buffer was dumped off of the plate and 20 μL/well of PBST and 10 μL/well of phage supernatant were added. Plates were incubated at 25° C. for one hour with shaking. The plate was then washed six times with PBST by manually filling the wells and dumping off the wash buffer. A 1:5,000 dilution of an anti-M13 horseradish peroxidase (HRP)-conjugated secondary antibody (GE Healthcare) in PBST was used for detection of phage binding. 30 μL/well of the secondary dilution was added and the plate was incubated at 25° C. for 30 minutes with shaking. The plate was then washed six times with PBST and twice with PBS, both manually. Bound secondary antibody was detected using a TMB substrate (KPL) followed by quenching with an equal volume of 1 M phosphoric acid. The absorbance was read at 450 nm.

[6] = molecular target: T3, K11-linked diubiquitin (Genentech) (human, UniProt P0CG48 1-76, isopeptide bond between the C-terminus of one ubiquitin and Lys11 of the other); assay: as above
T3 construct: also called K11 diUb
Description: as §2

[7] = molecular target: T4, K63-linked polyubiquitin 2-7 (Boston Biochem) (human, UniProt P0CG48 1-76, isopeptide bonds between the C-terminus of one ubiquitin and Lys63 of the next); assay: as above
T4 construct: also called K63-linked chains
Description: as §2

[8] = molecular target: T5, monoubiquitin (Boston Biochem) (human, UniProt P0CG48 1-76); assay: as above
T5 construct: Bought product
Description: as §2

[9] = molecular target: T1, linear diubiquitin (Boston Biochem); assay: phage IC50 competition ELISA with soluble linear diubiquitin; remark: listed apart in the source
[10] = molecular target: T3, K11-linked diubiquitin (Genentech); assay: phage specificity ELISA, 1 ug/mL coated antigen, anti-M13-HRP
[11] = molecular target: T6, K48-linked diubiquitin (Boston Biochem) (human, UniProt P0CG48 1-76, isopeptide bond between the C-terminus of one ubiquitin and Lys48 of the other); assay: as above
T6 construct: Bought product; also called K48 diUb

[12] = molecular target: T5, monoubiquitin (Boston Biochem); assay: as above
[13] = molecular target: T3, K11-linked diubiquitin (Genentech); assay: as above; remark: listed apart in the source
[14] = molecular target: T6, K48-linked diubiquitin (Boston Biochem); assay: as above; remark: listed apart in the source
[15] = molecular target: T5, monoubiquitin (Boston Biochem); assay: as above; remark: listed apart in the source

B1: 1D8.3C2, Fab displayed on phage (Fab, V domains shown)
VH: EVQLVESGGGLVQPGGSLRLSCAASGFTFTDYDIHWVRQAPGKGLEWVAWISPYSGYTDYADSVKGRFTISADTSKNTAYLQMNSLRAEDTAVYYCAREAGSRLLSVMDYWGQGTLVTVSS
VL: DIQMTQSPSSLSASVGDRVTITCRASQGVDNSVAWYQQKPGKAPKLLIYSASFLYSGVPSRFSGSGSGTDFTLTISSLQPEDFATYYCQQSYTTPPTFGQGTKVEIK
notes: Fab on M13 phage
binding result [1]: binds

B2: 1D8, Fab displayed on phage (Fab, V domains shown)
VH: EVQLVESGGGLVQPGGSLRLSCAASGFTFTDYDIHWVRQAPGKGLEWVAGISPYGGYTDYADSVKGRFTISADTSKNTAYLQMNSLRAEDTAVYYCAREAGSRLLSVMDYWGQGTLVTVSS
VL: DIQMTQSPSSLSASVGDRVTITCRASQDVSTAVAWYQQKPGKAPKLLIYSASFLYSGVPSRFSGSGSGTDFTLTISSLQPEDFATYYCQQSYTTPPTFGQGTKVEIK
notes: Fab on M13 phage (heavy chain fused to gpIII, gD tag on light chain); Fab-zip (bivalent) in the first spot ELISA, monovalent afterwards; also called parental wild-type 1D8
IC50 [2]: ~5000 nM

B3: 1E3, Fab displayed on phage (Fab, V domains shown)
VH: EVQLVESGGGLVQPGGSLRLSCAASGFTFSNTYISWVRQAPGKGLEWVASITPSSGSTDYADSVKGRFTISADTSKNTAYLQMNSLRAEDTAVYYCARTWLLRWVMDYWGQGTLVTVSS
VL: DIQMTQSPSSLSASVGDRVTITCRASQDVSTAVAWYQQKPGKAPKLLIYSASFLYSGVPSRFSGSGSGTDFTLTISSLQPEDFATYYCQQSYTTPPTFGQGTKVEIK
notes: Fab on M13 phage (heavy chain fused to gpIII, gD tag on light chain); Fab-zip (bivalent) in the first spot ELISA, monovalent afterwards; also called WT; parental 1E3
IC50 [3]: 29 nM and 24 nM and 25 nM | IC50 [4]: 80 nM

B4: 1A10, Fab displayed on phage (Fab, V domains shown)
VH: EVQLVESGGGLVQPGGSLRLSCAASGFNIYYSSIHWVRQAPGKGLEWVASIYPYYGYTSYADSVKGRFTISADTSKNTAYLQMNSLRAEDTAVYYCARGYSWYYGSPAFDYWGQGTLVTVSS
VL: DIQMTQSPSSLSASVGDRVTITCRASQSVSSAVAWYQQKPGKAPKLLIYSASSLYSGVPSRFSGSRSGTDFTLTISSLQPEDFATYYCQQHYTTPPTFGQGTKVEIK
notes: Fab on M13 phage
binding result [5]: no binding | binding result [6]: no binding | binding result [7]: no binding | binding result [8]: no binding

B5: 1D8.4F5, Fab displayed on phage (Fab, V domains shown)
VH: EVQLVESGGGLVQPGGSLRLSCAASGFTFTDDDIHWVRQAPGKGLEWVAEISPYGGYTDYADSVKGRFTISADTSKNTAYLQMNSLRAEDTAVYYCAREAGSRLLSVMDYWGQGTLVTVSS
VL: DIQMTQSPSSLSASVGDRVTITCRASQDVSTAVAWYQQKPGKAPKLLIYSASFLYSGVPSRFSGSGSGTDFTLTISSLQPEDFATYYCQQSFTTPPTFGQGTKVEIK
notes: Fab on M13 phage
IC50 [9]: ~2000 nM

B6: 1F11/3F5 double mutant, Fab displayed on phage (Fab, V domains shown)
VH: EVQLVESGGGLVQPGGSLRLSCAASGFTFSNTYISWVRQAPGKGLEWVASITPSSGQTDYADSVKGRFTISADTSKNTAYLQMNSLRAEDTAVYYCARTWLLRWVMDYWGQGTLVTVSS
VL: DIQMTQSPSSLSASVGDRVTITCRASQDVSTAVAWYQQKPGKAPKLLIYSAKFLYSGVPSRFSGSGSGTDFTLTISSLQPEDFATYYCQQSYTTPPTFGQGTKVEIK
notes: S52K (L2) and S56Q (H2)
IC50 [3]: 5 nM | binding result [10]: no binding (tested: phage OD268 1) | binding result [11]: no binding (tested: phage OD268 1) | binding result [12]: no binding (tested: phage OD268 1)

B7: 2C11/3F5 double mutant, Fab displayed on phage (Fab, name in Kabat numbering, V domains shown)
VH: EVQLVESGGGLVQPGGSLRLSCAASGFTFSNTYISWVRQAPGKGLEWVASITPSSGQTDYADSVKGRFTISADTSKNTAYLQMNSLRAEDTAVYYCARTWLLRWVMDYWGQGTLVTVSS
VL: DIQMTQSPSSLSASVGDRVTITCRASQDVSTAVAWYQQKPGKAPKLLIYSASFLYSGVPSRFSGSGSGTDFTLTISSLQPEDFATYYCQQSYTQPPTFGQGTKVEIK
IC50 [3]: 10 nM | binding result [13]: no binding (tested: phage OD268 1) | binding result [14]: no binding (tested: phage OD268 1) | binding result [15]: no binding (tested: phage OD268 1)

B8: 2H5/3F5 double mutant, Fab displayed on phage (Fab, name in Kabat numbering, V domains shown)
VH: EVQLVESGGGLVQPGGSLRLSCAASGFTFSNTYISWVRQAPGKGLEWVASITPSSGQTDYADSVKGRFTISADTSKNTAYLQMNSLRAEDTAVYYCARTWLLRWVMDYWGQGTLVTVSS
VL: DIQMTQSPSSLSASVGDRVTITCRASQDVSTAVAWYQQKPGKAPKLLIYSASFLYSGVPSRFSGSGSGTDFTLTISSLQPEDFATYYCQQSYTNPPTFGQGTKVEIK
IC50 [3]: 8 nM | binding result [13]: no binding (tested: phage OD268 1) | binding result [14]: no binding (tested: phage OD268 1) | binding result [15]: no binding (tested: phage OD268 1)
